Source: the Human Domainome abundance scans (Beltran et al. 2025)
± gives the uncertainty stated by the source.

B1: Formin-binding protein 4, residues 593 to 636; numbered along this chain, Q8N3X1 (parent)
chain: EINATPKGWSCHWDRDHRRYFYVNEQSGESQWEFPDGEEEEEES

Variants of: B1
Experiment: abundance fitness (aPCA) (normalised: wild type 0, dead -1); higher = more abundant; growth selection in yeast, the domain comes from the species named
Conditions: Homo sapiens

Abundance fitness: each site, then its substitutions
P35: G -0.611 ± 0.062; R -0.661 ± 0.065; Y -0.995 ± 0.18; T -0.753 ± 0.099
S30: I 0.082 ± 0.13; V 0.094 ± 0.072; T 0.067 ± 0.083; E -0.04 ± 0.084; R 0.27 ± 0.081; M 0.04 ± 0.17; H -0.354 ± 0.17
I2: P -0.094 ± 0.11; L -0.208 ± 0.11; A -0.518 ± 0.2; R -0.006 ± 0.091; E -0.173 ± 0.3; Y -0.02 ± 0.25
S27: C -0.681 ± 0.28; D -0.551 ± 0.14; Q -0.613 ± 0.12; R -0.422 ± 0.09; T 0.022 ± 0.072; W -1.52 ± 0.45; E -0.427 ± 0.091
N3: E 0.185 ± 0.15; Q 0.041 ± 0.084; M 0.323 ± 0.24; C -0.304 ± 0.2; D 0.157 ± 0.34; G -0.098 ± 0.071; H -0.128 ± 0.15; V -0.093 ± 0.11; Y -0.062 ± 0.24
Q31: F -0.416 ± 0.082; A -0.377 ± 0.065; R -0.075 ± 0.059; C -0.129 ± 0.093; I -0.472 ± 0.1; E -0.707 ± 0.081; P -0.819 ± 0.18; T -0.115 ± 0.078; N -0.742 ± 0.33
E38: W -0.314 ± 0.13; M 0.058 ± 0.087; G -0.051 ± 0.072; F -0.217 ± 0.12; C -0.047 ± 0.071; S 0.045 ± 0.07; Q 0.061 ± 0.077
G8: Q -0.612 ± 0.14; R -0.621 ± 0.11; K -0.408 ± 0.2; M -0.605 ± 0.14; E -0.438 ± 0.18; V -0.664 ± 0.14; A -0.707 ± 0.08; C -0.471 ± 0.16; N -0.373 ± 0.16
D14: C -0.341 ± 0.13; I -0.799 ± 0.17; F -0.75 ± 0.47; A -0.514 ± 0.072; T -0.747 ± 0.13; G -0.963 ± 0.068; E -0.685 ± 0.13; R -0.843 ± 0.076; S -0.141 ± 0.077; Q -0.667 ± 0.15; P -1.12 ± 0.29; V -0.811 ± 0.079
G28: A -0.567 ± 0.076; E -0.702 ± 0.1; C -0.61 ± 0.12; W -1.14 ± 0.12; R -0.438 ± 0.079; K -0.199 ± 0.2; V -0.932 ± 0.085; L -0.363 ± 0.071
F21: R 0.187 ± 0.06; G -0.368 ± 0.058; C 0.058 ± 0.087; M -0.048 ± 0.16; P -0.303 ± 0.093; H -0.391 ± 0.11; A -0.179 ± 0.064; Q -0.223 ± 0.19; V 0.113 ± 0.067
G37: P -0.034 ± 0.097; C -0.088 ± 0.086; V -0.007 ± 0.068; M -0.216 ± 0.13; H -0.021 ± 0.12; D -0.266 ± 0.18; Q -0.089 ± 0.094; W -0.154 ± 0.072; R -0.222 ± 0.068
H12: C -0.302 ± 0.14; L -0.306 ± 0.073; E -0.049 ± 0.13; M -0.498 ± 0.13; W -0.637 ± 0.094; R -0.17 ± 0.07
Q26: H -0.266 ± 0.2; M -0.242 ± 0.18; K 0.18 ± 0.11; L -0.137 ± 0.083; G -0.199 ± 0.063; A 0.017 ± 0.071; V -0.19 ± 0.099; T -0.104 ± 0.12; S -0.071 ± 0.081
E25: A -0.179 ± 0.078; Q 0.006 ± 0.14; V -0.17 ± 0.094; C -0.355 ± 0.29; P -0.449 ± 0.14; G -0.316 ± 0.073
E41: V 0.042 ± 0.065; L -0.1 ± 0.073; N -0.109 ± 0.083; A 0.012 ± 0.063; R 0.007 ± 0.059; T -0.011 ± 0.065; D -0.28 ± 0.13; Q 0.056 ± 0.091; G 0.041 ± 0.059; P 0.031 ± 0.078
W32: G -0.28 ± 0.061; V -0.093 ± 0.091; C -0.305 ± 0.11; S -0.23 ± 0.066; H -0.157 ± 0.25; D -0.364 ± 0.14; L -0.002 ± 0.07; A -0.226 ± 0.079; F 0.047 ± 0.15; M -0.243 ± 0.098
D36: P -0.025 ± 0.071; F -0.232 ± 0.11; I -0.07 ± 0.13; N -0.273 ± 0.16; E -0.113 ± 0.085; W -0.262 ± 0.073; Q -0.063 ± 0.072; R -0.012 ± 0.062; A -0.04 ± 0.067; H -0.087 ± 0.083; M -0.09 ± 0.079; T -0.137 ± 0.081
E39: S -0.056 ± 0.072; D -0.128 ± 0.14; N 0.052 ± 0.096; T 0.11 ± 0.084; W -0.191 ± 0.074; M -0.109 ± 0.083; P 0.041 ± 0.069; C 0.048 ± 0.1; Q 0.074 ± 0.078; V 0.008 ± 0.059
R18: V -0.421 ± 0.1; C -0.183 ± 0.22; M -0.124 ± 0.13; A 0.012 ± 0.071; H -0.11 ± 0.16
K7: R -0.074 ± 0.1; G -0.577 ± 0.15; S -0.214 ± 0.14; V -0.065 ± 0.12; A -0.079 ± 0.093; F -0.303 ± 0.1; L -0.299 ± 0.1; D -0.123 ± 0.4
D16: R -0.274 ± 0.059; Q -0.075 ± 0.12; W -0.218 ± 0.069; V -0.253 ± 0.08; G -0.239 ± 0.061; H -0.168 ± 0.088; C -0.225 ± 0.089; K -0.169 ± 0.084; L -0.447 ± 0.069
S10: H -0.502 ± 0.29; L -0.345 ± 0.12; D -0.465 ± 0.11; Y -0.521 ± 0.43; T -0.288 ± 0.24; Q -0.183 ± 0.15; P -0.91 ± 0.15; W -1.06 ± 0.12; V -0.186 ± 0.1
E29: D -0.388 ± 0.26; G -0.253 ± 0.07; Q -0.027 ± 0.079; L -0.129 ± 0.094; P -0.883 ± 0.12; T -0.269 ± 0.3
V23: T 0.324 ± 0.21; C -0.765 ± 0.21; G -0.607 ± 0.059; M -0.331 ± 0.14; Q -0.179 ± 0.093; R -0.039 ± 0.058; P -0.736 ± 0.11; A -0.347 ± 0.071
R19: Q -0.092 ± 0.11; N -0.506 ± 0.25; T -0.621 ± 0.2; K -0.058 ± 0.088; P -1.24 ± 0.3; C -0.207 ± 0.3
E1: G -0.433 ± 0.11; N -0.304 ± 0.34; M -0.019 ± 0.2; D -0.154 ± 0.15; V -0.499 ± 0.16; R -0.186 ± 0.23
R15: F -0.188 ± 0.21; G -0.032 ± 0.061; N -0.05 ± 0.12; A -0.059 ± 0.073; K 0.14 ± 0.11; W -0.315 ± 0.1
W9: R -0.817 ± 0.071; Y -0.534 ± 0.16; M -0.591 ± 0.12; K -0.619 ± 0.2; D -0.742 ± 0.18; G -0.423 ± 0.058; S -0.368 ± 0.074; V -0.629 ± 0.1; L -0.719 ± 0.083; Q -0.498 ± 0.14
E33: F -0.497 ± 0.081; S -0.184 ± 0.082; T -0.078 ± 0.08; R -0.241 ± 0.055; P -0.59 ± 0.083; Q -0.009 ± 0.085; V -0.456 ± 0.068
E43: Q -0.433 ± 0.3; P 0.044 ± 0.083; K 0.021 ± 0.092; N -0.08 ± 0.15; G 0.021 ± 0.082; V 0.046 ± 0.079; T 0.008 ± 0.089; D -0.02 ± 0.13; S 0.041 ± 0.078
C11: V -0.257 ± 0.2
F34: L 0.015 ± 0.061; M -0.07 ± 0.096; Q 0.015 ± 0.089; P 0.071 ± 0.076; N -0.635 ± 0.13; G -0.392 ± 0.065; H -0.011 ± 0.11
N24: M -0.984 ± 0.099; Y -0.998 ± 0.16; W -0.726 ± 0.082; C -0.226 ± 0.18; K -0.23 ± 0.13; F -0.687 ± 0.31; L -1 ± 0.082; R -0.359 ± 0.058; S -0.315 ± 0.079
A4: N 0.2 ± 0.12; K -0.008 ± 0.17; T -0.032 ± 0.16; R -0.01 ± 0.07; V -0.132 ± 0.096
E42: K 0.022 ± 0.11; V -0.005 ± 0.07; R 0.01 ± 0.057; T 0.026 ± 0.073; A 0.04 ± 0.061; D 0.038 ± 0.084; G 0.122 ± 0.061; C -0.023 ± 0.064; W -0.283 ± 0.087; P 0.004 ± 0.064; I -0.409 ± 0.12
H17: W -0.486 ± 0.095; D -0.201 ± 0.11; Y -0.156 ± 0.095; M -0.235 ± 0.19; E 0.088 ± 0.079; G -0.274 ± 0.065; K 0.207 ± 0.1
Y22: D -0.552 ± 0.17; S -0.322 ± 0.087; Q -0.439 ± 0.099; K 0.291 ± 0.34; T -0.402 ± 0.12; W 0.035 ± 0.08; I -0.515 ± 0.17
E40: Q -0.033 ± 0.071; Y 0.114 ± 0.22; K -0.004 ± 0.09; R -0.035 ± 0.058; L 0.008 ± 0.061; F -0.144 ± 0.15; W -0.101 ± 0.078; A 0.038 ± 0.067
T5: K 0.67 ± 0.33; G -0.393 ± 0.097; A -0.387 ± 0.26; W -0.19 ± 0.15; M -0.054 ± 0.15; F -0.306 ± 0.17; H -0.534 ± 0.36
Y20: A -0.3 ± 0.065; V -0.206 ± 0.068; D -0.64 ± 0.13; R -0.229 ± 0.068; C -0.196 ± 0.12; E -0.488 ± 0.078; Q -0.285 ± 0.16; M -0.205 ± 0.12
W13: D -0.71 ± 0.14; I -0.986 ± 0.31; G -0.544 ± 0.067; H -0.499 ± 0.1; F -0.095 ± 0.18; S -0.662 ± 0.079; R -0.738 ± 0.065; C -0.497 ± 0.1; Q -0.546 ± 0.085; P -0.404 ± 0.074; Y -0.189 ± 0.25
S44: V 0.253 ± 0.16; R 0.025 ± 0.3; H -0.013 ± 0.2; G 0.083 ± 0.098; M -0.536 ± 0.17
